Data on 1 molecule can be found in publication PMC7687889, “Molecular basis of EphA2 recognition by gHgL from gammaherpesviruses” (Nature Communications, 2020).

The target in the test is T1, KSHV glycoprotein L (gL), residues 21-167 (Kaposi sarcoma-associated herpesvirus …, UniProt F5HDB7 21-167).
T1 construct: source: High Five cells (baculovirus), secreted with gH, purified (HisTrap, Resource S, Superdex 200)
Nature of the test: crystal structure; KSHV gHgL-LBD complex, mixed on ice 1 h and purified on Superdex 200 Increase; 3.2 Å. The settings on record: both partners purified.

B1: KSHV glycoprotein H (gH), residues 22-698 (domain or fragment)
chain: ATGALPTTATTITRSATQLINGRTNLSIELEFNGTSFFLNWQNLLNVITEPALTELWTSAEVAEDLRVTLKKRQSLFFPNKTVVISGDGHRYTCEVPTSSQTYNITKGFNYSALPGHLGGFGINARLVLGDIFASKWSLFARDTPEYRVFYPMNVMAVKFSISIGNNESGVALYGVVSEDFVVVTLHNRSKEANETASHLLFGLPDSLPSLKGHATYDELTFARNAKYALVAILPKDSYQTLLTENYTRIFLNMTESTPLEFTRTIQTRIVSIEARRACAAQEAAPDIFLVLFQMLVAHFLVARGIAEHRFVEVDCVCRQYAELYFLRRISRLCMPTFTTVGYNHTTLGAVAATQIARVSATKLASLPRSSQETVLAMVQLGARDGAVPSSILEGIAMVVEHMYTAYTYVYTLGDTERKLMLDIHTVLTDSCPPKDSGVSEKLLRTYLMFTSMCTNIELGEMIARFSKPDSLNIYRAFSPCFLGLRYDLHPAKLRAEAPQSSALTRTAVARGTSGFAELLHALHLDSLNLIPAINCSKITADKIIATVPLPHVTYIISSEALSNAVVYEVSEIFLKSAMFISAIKPDCSGFNFSQIDRHIPIVYNISTPRRGCPLCDSVIMSYDESDGLQSLMYVTNERVQTNLFLDKSPFFDNNNLHIHYLWLRDNGTVVEIRGMY
notes: also called KSHV gH; source: High Five cells (baculovirus), secreted with gL, purified (HisTrap, Resource S, Superdex 200)
On to B1, for which the binding result is listed as “binds”.
